Measurements from publication PMC8123555, “Precision targeting of the plasminogen activator inhibitor‐1 mechanism increases efficacy of fibrinolytic therapy in empyema” (Physiological Reports, 2021).

Columns and labels:
Assay type in all cases: in vivo, rabbit
FITC‐fibrin [1] = assay: Fibrinolytic activity in pleural fluids (FITC-fibrin film assay), empyema; conditions: PAI-1-TFT with 2.0 mg/kg DSP, infectious pleural injury; for Steady-state level of pleural fluid fibrinolytic activity: relative to supplemented baseline
Description: (§1) A Pilot Fibrinolytic Assay (FPA96F) was used to measure fibrinolytic potential (Beckert et al., 2019; Florova et al., 2015) and fibrinolytic activity (Florova et al., 2015, 2018; Komissarov et al., 2016) in pleural fluid samples. To prepare a FITC‐fibrin film, a 1:1 mixture of FITC‐tagged and unlabeled fibrinogen (0.4 mg/ml) in 0.05 M Hepes/NaOH (pH 7.5, 130 mM NaCl, 5 mM CaCl2) buffer at room temperature was transferred to black 96‐well flat bottom plates from Costar (Corning Inc, NY). Human thrombin (final concentration 10 nM) was added to each well and plates were dried overnight in a dark chemical hood at room temperature. 96‐well plates with FITC‐fibrin film were washed three times with 0.3 ml of cold Hepes/NaOH buffer and stored at −20°C up to one year. Fibrinolytic activity in pleural fluids was calculated from the slopes of time‐dependences of an increase in the fluorescence emission at 512 nm (excitation at 490 nm) due to the degradation of FITC‐fibrin. Fibrinolytic potential was determined as the difference between fibrinolytic activity in samples of pleural fluid at baseline (BL) or 24 h measured with and without supplementation with sctPA (Florova et al., 2015). To determine whether PAI‐1‐TFT affects fibrinolytic potential in rabbits, BL values were plotted against fibrinolytic potential at 24 h and the linear correlation was determined using Sigmaplot 14.0.

[2] = tested on: plasminogen activating activity in pleural fluid; assay: Intrapleural inactivation of tPA and uPA plasminogen activating activity, empyema; conditions: infectious pleural injury
Description: (§2) Amidolytic activity was measured in clear 96‐well flat bottom plates from Costar (Corning Inc.) using a Synergy™ HT Hybrid Reader (BioTek, Winooski, VT). Amidolytic activity was calculated from the initial slopes of the time traces of the change in absorbance at 405 nm upon hydrolysis of chromogenic as described previously (Komissarov et al., 2009, 2013). The plasminogen activating activity was determined from the relative rate of activation of exogenous Glu‐plasminogen added to the reaction mixture containing 0.1–0.5 µl of pleural fluid in 0.1 ml of Hepes buffer solution with BSA (1 mg/ml) as previously described (Florova et al., 2013, 2018). The reaction mixtures (0.1 ml in black 96‐well flat bottom plates from Costar) contained 100 nM of human Glu‐plasminogen with 0.2 mM of SN‐5 plasmin fluorogenic substrate (HTI, Essex Junction, VT). Plasmin activity was measured by recording changes in the fluorescence emission at 470 nm (F470) with time (excitation at 352 nm) using a Synergy™ HT Hybrid Reader (BioTek, Winooski, VT). The level of plasminogen activating activity [PA] was calculated from slopes of linear dependences of F470 from square of time (t^2) (F470 = A [PA] t^2 + B; where A and B are constants), and results of measurements of standards with known concentrations of tcuPA and tctPA as previously described (Komissarov et al., 2009, 2013). […]

[3] = tested on: plasminogen activating activity in pleural fluid; assay: Intrapleural inactivation of tPA and uPA plasminogen activating activity, TCN-induced injury; conditions: during PAI-1-TFT of chemically induced pleural injury; slower phase, 10-40 min
Description: as §2

FITC‐fibrin [4] = assay: Fibrinolytic activity in pleural fluids (FITC-fibrin film assay), TCN-induced injury; conditions: PAI-1-TFT with 2.0 mg/kg DSP, chemically induced injury; for Steady-state level of pleural fluid fibrinolytic activity: relative to supplemented baseline
Description: as §1

| Substance | kobs of decrease in pleural fluid fibrinolytic activity to steady state (FITC‐fibrin [1]) | Steady-state level of pleural fluid fibrinolytic activity (FITC‐fibrin [1]) | kobs of intrapleural inactivation ([2]; with 2.0–8.0 mg/kg DSP) | kobs of intrapleural inactivation of plasminogen activating activity [3] | kobs of decrease in pleural fluid fibrinolytic activity to steady state (FITC‐fibrin [4]) | Steady-state level of pleural fluid fibrinolytic activity (FITC‐fibrin [4]) | kobs of intrapleural inactivation ([2]; with 2.0 mg/kg DSP) |
| --- | --- | --- | --- | --- | --- | --- | --- |
| Alteplase [sctPA, reference compound] | 0.48 ± 0.07 min⁻¹ | 1.5% | 0.024 ± 0.010 min⁻¹ | 0.02 to 0.05 min⁻¹ | 0.40 ± 0.11 min⁻¹ | 2.7% | – |
| Prourokinase [scuPA] | 0.16 ± 0.06 min⁻¹ | 2.5% | – | 0.02 to 0.05 min⁻¹ | 0.09 ± 0.06 min⁻¹ | 5.6% | 0.014 ± 0.008 min⁻¹ |
